The source of these data is paper PMC6144507 (Molecular Pain, 2018).

The assay addresses His-nNOS(1-299) (UniProt P29475-1 1-299). Kind of assay: AlphaScreen or HTRF.

Chain of His-nNOS(1-299) (P29475 1-299): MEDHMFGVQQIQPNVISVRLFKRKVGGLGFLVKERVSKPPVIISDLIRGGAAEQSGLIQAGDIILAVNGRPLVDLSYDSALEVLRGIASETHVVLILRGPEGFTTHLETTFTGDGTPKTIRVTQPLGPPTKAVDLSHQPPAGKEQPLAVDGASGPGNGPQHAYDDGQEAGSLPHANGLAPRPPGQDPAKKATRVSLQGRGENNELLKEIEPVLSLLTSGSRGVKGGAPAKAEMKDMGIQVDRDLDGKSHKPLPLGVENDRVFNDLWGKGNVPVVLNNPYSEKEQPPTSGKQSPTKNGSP

Broadly, the IC50 is the concentration needed to halve the response being measured. Low values mean inhibition by little substance, high ones a need for much substance. The molecule GRKKRRQRRRYAGQWGESV [L-TAT-GESV] came in with an IC50 of 4.9 µM.
